Reference: paper PMC10019796 (Scientific Reports, 2023)

Legend:
[1] = biological target: T1, mtDsbC-SARS-CoV-2 RBD wild type fusion protein (SARS-CoV-2, wild type (Wuhan-Hu-1), UniProt P0DTC2, biotin (EZ-Link NHS-PEG4-Biotin)); assay: BLI; biotinylated mtDsbC-RBD (20 µg/mL) immobilised on streptavidin (SA) biosensors, Fabs as analytes at three nanomolar concentrations; Octet RED384, 30 °C, 1000 rpm, 1 × PBS Kinetics Buffer; 1:1 interaction model, global fit; conditions: both partners purified
T1 construct: also called RBD SARS-CoV-2 (wild type); mtDsbC-RBD; not shown: mtDsbC solubility tag, N-terminal, kept

[2] = biological target: T2, mtDsbC-SARS-CoV-2 RBD Alpha variant (B.1.1.7) fusion protein (SARS-CoV-2, Alpha (B.1.1.7), RBD N501Y, N501Y, biotin (EZ-Link NHS-PEG4-Biotin)); assay: as above; conditions: both partners purified
T2 construct: also called RBD SARS-CoV-2 (alpha variant); not shown: mtDsbC solubility tag, N-terminal, kept

Row | Binder | Kd [1] [nM] | Kd [2] [nM]
1 | REGN10987 (Imdevimab) Fab wild type (Fab, V domains shown, Fab heavy chain of REGN10987; Fab light chain of REGN10987; Polycistronic gene, light chain upstream of heavy chain; also called REGN10987 wild type; REGN10987 Fab) VH: QVQLVESGGGVVQPGRSLRLSCAASGFTFSNYAMYWVRQAPGKGLEWVAVISYDGSNKYYADSVKGRFTISRDNSKNTLYLQMNSLRTEDTAVYYCASGSDYGDYLLVYWGQGTLVTVSS VL: QSALTQPASVSGSPGQSITISCTGTSSDVGGYNYVSWYQQHPGKAPKLMIYDVSKRPSGVSNRFSGSKSGNTASLTISGLQSEDEADYYCNSLTSISTWVFGGGTKLTVL | 43.9 | 54.1
2 | REGN10987 (N31D) Fab (Fab, V domains shown) VH: QVQLVESGGGVVQPGRSLRLSCAASGFTFSDYAMYWVRQAPGKGLEWVAVISYDGSNKYYADSVKGRFTISRDNSKNTLYLQMNSLRTEDTAVYYCASGSDYGDYLLVYWGQGTLVTVSS VL: QSALTQPASVSGSPGQSITISCTGTSSDVGGYNYVSWYQQHPGKAPKLMIYDVSKRPSGVSNRFSGSKSGNTASLTISGLQSEDEADYYCNSLTSISTWVFGGGTKLTVL | 17.9 | 13.7
3 | REGN10987 (S95K) Fab (Fab, V domains shown) VH: QVQLVESGGGVVQPGRSLRLSCAASGFTFSNYAMYWVRQAPGKGLEWVAVISYDGSNKYYADSVKGRFTISRDNSKNTLYLQMNSLRTEDTAVYYCASGSDYGDYLLVYWGQGTLVTVSS VL: QSALTQPASVSGSPGQSITISCTGTSSDVGGYNYVSWYQQHPGKAPKLMIYDVSKRPSGVSNRFSGSKSGNTASLTISGLQSEDEADYYCNSLTKISTWVFGGGTKLTVL | 30.5 | 22.8
4 | REGN10933 (Casirivimab) Fab wild type (Fab, V domains shown, Fab heavy chain of REGN10933; Fab light chain of REGN10933; Polycistronic gene, light chain upstream of heavy chain; also called REGN10933 wild type; REGN10933 Fab) VH: QVQLVESGGGLVKPGGSLRLSCAASGFTFSDYYMSWIRQAPGKGLEWVSYITYSGSTIYYADSVKGRFTISRDNAKSSLYLQMNSLRAEDTAVYYCARDRGTTMVPFDYWGQGTLVTVSS VL: DIQMTQSPSSLSASVGDRVTITCQASQDITNYLNWYQQKPGKAPKLLIYAASNLETGVPSRFSGSGSGTDFTFTISGLQPEDIATYYCQQYDNLPLTFGGGTKVEIK | 2.84 | 3.12
5 | REGN10933 (N93Q) Fab (Fab, V domains shown) VH: QVQLVESGGGLVKPGGSLRLSCAASGFTFSDYYMSWIRQAPGKGLEWVSYITYSGSTIYYADSVKGRFTISRDNAKSSLYLQMNSLRAEDTAVYYCARDRGTTMVPFDYWGQGTLVTVSS VL: DIQMTQSPSSLSASVGDRVTITCQASQDITNYLNWYQQKPGKAPKLLIYAASNLETGVPSRFSGSGSGTDFTFTISGLQPEDIATYYCQQYDQLPLTFGGGTKVEIK | 2.76 | 3.42
6 | REGN10933 (M104N) Fab (Fab, V domains shown) VH: QVQLVESGGGLVKPGGSLRLSCAASGFTFSDYYMSWIRQAPGKGLEWVSYITYSGSTIYYADSVKGRFTISRDNAKSSLYLQMNSLRAEDTAVYYCARDRGTTNVPFDYWGQGTLVTVSS VL: DIQMTQSPSSLSASVGDRVTITCQASQDITNYLNWYQQKPGKAPKLLIYAASNLETGVPSRFSGSGSGTDFTFTISGLQPEDIATYYCQQYDNLPLTFGGGTKVEIK | 143 | 119
7 | REGN10933 (A75S) Fab (Fab, V domains shown) VH: QVQLVESGGGLVKPGGSLRLSCAASGFTFSDYYMSWIRQAPGKGLEWVSYITYSGSTIYYADSVKGRFTISRDNSKSSLYLQMNSLRAEDTAVYYCARDRGTTMVPFDYWGQGTLVTVSS VL: DIQMTQSPSSLSASVGDRVTITCQASQDITNYLNWYQQKPGKAPKLLIYAASNLETGVPSRFSGSGSGTDFTFTISGLQPEDIATYYCQQYDNLPLTFGGGTKVEIK | 3.22 | 2.75
8 | REGN10933 (T28E) Fab (Fab, V domains shown) VH: QVQLVESGGGLVKPGGSLRLSCAASGFEFSDYYMSWIRQAPGKGLEWVSYITYSGSTIYYADSVKGRFTISRDNAKSSLYLQMNSLRAEDTAVYYCARDRGTTMVPFDYWGQGTLVTVSS VL: DIQMTQSPSSLSASVGDRVTITCQASQDITNYLNWYQQKPGKAPKLLIYAASNLETGVPSRFSGSGSGTDFTFTISGLQPEDIATYYCQQYDNLPLTFGGGTKVEIK | < 0.001 | < 0.001
